The values below are quoted from earlier work in paper PMC10643566, “Insights into the mechanism of SARS-CoV-2 main protease autocatalytic maturation from model precursors” (Communications Biology, 2023).

One may read the pKd as the Kd on a negative log10 scale, so that one unit is a factor of ten.

pKd: −log10 of the molar value.

For the data set, the target named is MPro (SARS-CoV-2) (UniProt P0DTD1). The following applies: cited from earlier work.

Regarding MPro (from UniProt P0DTD1), the negative logarithm of the Kd (pKd) was 5.89.
